Holding throughout (test): BLI
The target of one assay is Tiga.
The next assay has as its target KMTR2.
Another assay addresses AMG655. The conditions noted are these: fit R^2 0.9925.
Another assay concerns the target Lexatumumab. Particulars: Loading ID Biot-Lexa.
For assay [1], the target named is SGE:AAA (135-137) NS Mut rDR5.
In assay [2] the target is KYGQ:AAGA (45-48) Mut rDR5.

One may read the kon as a measure of how fast the partners come together. A high value points to faster complex formation. As usually defined, the koff is the first-order rate constant of dissociation. A high value points to a short-lived complex. As usually defined, the Kd is the constant that tells how readily two partners part at equilibrium. Read a low Kd as higher affinity.

Regarding “WT DR5 recombinant protein (IgG4-Fc tagged extracellular domain of human DR5) (from UniProt O14763-1) E98A; M99A”, the kon in the assay with Tiga (fit R^2 0.9770) is 9.34e+06 M⁻¹ s⁻¹.
In the assay with KMTR2 (fit R^2 0.9806), “WT DR5 recombinant protein (IgG4-Fc tagged extracellular domain of human DR5) (from UniProt O14763-1) K45A; Y46A; Q48A” displayed a koff of 1e-07 s⁻¹ and a kon of 750000 M⁻¹ s⁻¹. In the assay with Tiga (fit R^2 0.9860), this substance had a koff of 0.000153 s⁻¹ and a kon of 1.72e+06 M⁻¹ s⁻¹.
“WT DR5 recombinant protein (IgG4-Fc tagged extracellular domain of human DR5) (from UniProt O14763-1) S135A; G136A; E137A”: the koff with AMG655 turned out to be 6.82e-05 s⁻¹; with KMTR2 (fit R^2 0.9964), 2.01e-05 s⁻¹; in the assay with Tiga (fit R^2 0.9793) it was 0.000625 s⁻¹. In addition, the values for the kon in the assay with AMG655, in the assay with KMTR2 (fit R^2 0.9964) and in the assay with Tiga (fit R^2 0.9793) were 539000 M⁻¹ s⁻¹, 791000 M⁻¹ s⁻¹ and 742000 M⁻¹ s⁻¹, respectively.
In the assay with Lexatumumab (fit R^2 0.8774), “WT DR5 recombinant protein (IgG4-Fc tagged extracellular domain of human DR5) (from UniProt O14763-1) C103_R104insS” registered a Kd of 0.215 nM and a kon of 1.5e+06 M⁻¹ s⁻¹.
As for Tigatuzumab, the figures for the koff in assay [1] and in assay [2] were 0.000625 s⁻¹ and 0.000153 s⁻¹, respectively.
In the assay with Lexatumumab (fit R^2 0.8916), “WT DR5 recombinant protein (IgG4-Fc tagged extracellular domain of human DR5) (from UniProt O14763-1) C103_R104insA” had a Kd of 0.266 nM and a kon of 2.14e+06 M⁻¹ s⁻¹.

These data come from publication PMC8720280.
